Laboratory results as given in PMC10673843, “Selection, characterization and in vivo evaluation of novel CD44v6-targeting antibodies for targeted molecular radiotherapy” (Scientific Reports, 2023).

Target: T1, CD44 (isoform 4), Fc-fused (Homo sapiens, UniProt P16070-4, strain)
T1 construct: printed MW 94.4 kDa; Fc-fused, dimeric presentation; For selections, ELISA and HTRF it was chemically biotinylated by amine coupling; also called CD44iso4; CD44iso4-Fc fusion construct; source: bought: Promab Biotechnologies, produced in HEK293 cells; not shown: Fc (IgG1), C-terminal, kept
Assay: SPR; single cycle kinetics; purified IgG4 captured by an immobilised anti-Fab antibody on a CM5 chip; CD44iso4 (Fc-fused, dimeric) injected in five concentrations between 80 and 0.3 nM; HBS with 0.05% Tween20, pH 7.5; 1:1 model; apparent (possible avidity from the dimeric target)
Conditions: both partners purified

B1: BIWA4 (bivatuzumab), as human IgG4 (antibody, V domains shown)
VH: EVQLVESGGGLVKPGGSLRLSCAASGFTFSSYDMSWVRQAPGKGLEWVSTISSGGSYTYYLDSIKGRFTISRDNAKNSLYLQMNSLRAEDTAVYYCARQGLDYWGRGTLVTVSS
VL: EIVLTQSPATLSLSPGERATLSCSASSSINYIYWYQQKPGQAPRLLIYLTSNLASGVPARFSGSGSGTDFTLTISSLEPEDFAVYYCLQWSSNPLTFGGGTKVEIK
notes: VH of BIWA4; human IgG4 heavy chain constant region from the in-house vector pHAT-hIgG4, with the hinge-stabilising S228P substitution; numbers count on: EU numbering; VL of BIWA4; light chain constant region of the vector pHAT-hIgG4; also called positive control; source: expiHEK293 cells, transfected, purified (Protein A beads)
Does B1 bind?
Result: binds
